Laboratory results taken from publication PMC4410877 (Biochemistry, 2009).
Each block holds one molecule with its values, some of them ahead of it. Ends that are not written are not given here.

Columns and labels:
[1] = test system: cofilin; settings: cited from earlier work
[2] = 10 °C; cited from earlier work
[3] = cited from earlier work
[4] = test system: actin; settings: literature statement, no reference printed at this sentence; cited from earlier work
[5] = molecular target: T1, αTM1b_(1-19)Zip (1bNTD), unlabeled synthetic peptide (rat | yeast); assay: circular dichroism titration
T1 chain: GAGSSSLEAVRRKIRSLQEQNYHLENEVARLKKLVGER

Molecule: Tropomyosin
inhibition of cofilin binding and severing [1]: competitive inhibitor

Molecule: 9aCTD: residues 251-284 of rat striated α-tropomyosin encoded by exon 8 and exon 9a with GCG at the N-terminus (GCGKSIDDLEDELYAQKLKYKAISEELDHALNDMTSI; not fully specified; UniProt P04692 251-284, looked up, fragment)
helical content of 9aCTD [2]: greater than 75%
TM of unfolding of 9aCTD [3]: ~ 25 °C

Molecule: Cofilin: actin filament binding and severing protein
affinity of cofilin for the actin filament [4]: high affinity

Kd [5]: < 500 nM
stoichiometry N [5]: 0.94 ± 0.03 molar ratio
B1: α-TM9d_(252-284) (9dCTD), disulfide cross-linked (peptide)
chain: GCGGSIDDLEEKVAHAKEENLSMHQMLHQTLLELNNM
modifications: also: disulfide cross-link between two chains through Cys2 (dimer)
